Experimental data published in FireProtDB (doi:10.1021/bi992119u).

Conditions: Pseudomonas putida; pH 7; 25 °C; Urea; CD; Sodium phosphate 25 mM; reversible: yes; whole UniProt chain shown

B1: Steroid Delta-isomerase wild type, P07445 (protein)
chain: MNLPTAQEVQGLMARYIELVDVGDIEAIVQMYADDATVEDPFGQPPIHGREQIAAFYRQGLGGGKVRACLTGPVRASHNGCGAMPFRVEMVWNGQPCALDVIDVMRFDEHGRIQTMQAYWSEVNLSVREPQ
denaturant m value: 3.39 kcal/mol/M | denaturant midpoint (higher = more stable): 5.22 M | unfolding free energy: 24.3 kcal/mol
